Measurements taken from the nanobody polyreactivity screen of Harvey et al. (2022).

Test: yeast display, Sf9 membrane polyspecificity reagent, FACS + sequencing; frameworks hold sequencing errors
Outline: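 After 36–48 hours of galactose induction, yeast (Saccharomyces cerevisiae BJ5465) displaying a synthetic nanobody library were stained at 4 °C for 1 hour with 10% biotinylated, detergent-solubilized Sf9 membrane reagent. Streptavidin microbeads enriched the stained cells before FACS sorting into low and high (top ~1%) gates on anti-HA and streptavidin fluorescence. Each clone's polyreactivity label reflects its gate of origin.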

Row | Sequence | polyreactivity (PSR sort gate)
1 | QVQLVESGGGLVQAGGSLRLSCAASGSIFVPNTMGWYRQAPGKERELVAVISRSGGSTNYADSVKGRFTISRDNAKNTVYLQMNSLKPEDTAVYYCNADDGYSVWGYDYWGQGTQVTVSS | low polyreactivity
2 | QVQLVESGGGLVQAGGSLRLSCAASGSIFVPYAMGWYRQAPGKEREFVAVISLRGSRTYYADSVKGRFTISRDNAKNTVYLQMNSLKPEDTAVYYCATTGYRLRQATRYDYWGQGTQVTVSS | high polyreactivity
3 | QVQLVESGGGLVQAGGSLRLSCAASGSIFVPYAMGWYRQAPGKERELVAAISSSTASTYYADSVKGRFTISRDNAKNTVYLQMNRLKPEETAVYYFNAEQWDYGVRVAHYDYWGQGTQVTVSS | low polyreactivity
4 | QVQLVESGGGLVQAGGSLRLSCAASGSIFVPYAMGWYRQAPGKERELVAGINWSSGRTYYADSVKGRFTISRDNAKNTVYLQMNSLKPEDTAVYYCAAEKYTTYSFYHVAYDYWGQGTQVTVSS | high polyreactivity
5 | QVQLVESGGGLVQAGGSLRLSCAASGSIFVPYAMGWYRQAPGKERELVATITISGGSTYYADSVKGRFTISRDNAKNTVYLQMNSLKPEDTAVYYCAAETTASYYKRTDDYDYWGQGTQVTVSS | low polyreactivity
6 | QVQLVESGGGLVQAGGSLRLSCAASGSIFVRNAMGWYRQAPGKERELVAADSVKGRFTISRDNAKNTVYLQMNSLKPEDTAVYYCNKDYIIRRGPIVYYGFDYWGQGTQVTVSS | low polyreactivity
7 | QVQLVESGGGLVQAGGSLRLSCAASGSIFVRNAMGWYRQAPGKERELVATITRRGGRTYYADSVKGRFTISRDNAKNTVYLQMNSLKPEDTAVYYCAARVRTATRRFTSYYWGQGTQVTVSS | high polyreactivity
8 | QVQLVESGGGLVQAGGSLRLSCAASGSIFVRYAMGGYRQAPGKERELVASIRSRGDSTYYADSVKGRFTISRDNAKNTVYLQMISLKPEDTAVYFFADRRYPPRMDYWGQGTQVTVSS | high polyreactivity
9 | QVQLVESGGGLVQAGGSLRLSCAASGSIFVRYAMGWYRQAPGKERELVAAISSGGRTYYADSVKGRFTISRDNAKNTVYLQMNSLKPEDTAVYYCNAVKRVPSLGPYDYWGQGTQVTVSS | high polyreactivity
10 | QVQLVESGGGLVQAGGSLRLSCAASGSIFVSNAMGWYRQAPGKERELVAAISSGGSTNYADSVKGRFTISRDNAKNTVYLQMNSLKPEDTAVYYCAARYYGYAGRFDYWGQGTQVTVSS | low polyreactivity
11 | QVQLVESGGGLVQAGGSLRLSCAASGSIFVSNARVWYRQAPGKERELVAANTSSGSTDYADSVKGRFTISRANAKNTVYLQMNSLKPEDTAVYYCAAESYHTFFLWSLNDSWGQGTQVTVSS | low polyreactivity
12 | QVQLVESGGGLVQAGGSLRLSCAASGSIFVSYTMGWYRQAPGKERELVAAITRSGGSTYYADSVKGRFTISRDNAKNTVYLQMNSLKPEDTAVYYCAAGTVDYRGYFEMYFWGQGTQVTVSS | low polyreactivity
13 | QVQLVESGGGLVQAGGSLRLSCAASGSIFVSYTMGWYRQPPGKERELVAAISGGGASTYYADSVKGRFTISRDNAKNTVYLQMNSLKPEDTAVYYCNASRKRSYDYWGQGTQVTVSS | low polyreactivity
14 | QVQLVESGGGLVQAGGSLRLSCAASGSIFVTNAMGWYRQAPGKERELVAAISNSGSSTYYADSVKGRFTISRDNAKNTVYLQMNSLKPEDTAVYYCAADWYGVTGSYYYWGQGTQVTVSS | high polyreactivity
15 | QVQLVESGGGLVQAGGSLRLSCAASGSIFVTNAMGWYRQAPGKERELVAAISWRGGSTYYADSVKGRFTISRDNAKNTVYLQMNSLKPEDTAVYYCNTYHPYWGSGFDYWGQGTQVTVSS | low polyreactivity
16 | QVQLVESGGGLVQAGGSLRLSCAASGSIFVTNAMGWYRQAPGKERELVAAISWRGGSTYYADSVKGRFTISRDNAKNTVYLQMNSLKPEDTGVYDCNTYHPYWGSGFDYWGLGTQVTVSS | low polyreactivity
17 | QVQLVESGGGLVQAGGSLRLSCAASGSIFVTNAMGWYRQAPGKEREMVATITSSGSTNYADSVKGRFTISRDNAKNTVYLQMNSLKPEDTAVYYCAKRWLWYYWGFAPSDYWGQGTQVTVSS | low polyreactivity
18 | QVQLVESGGGLVQAGGSLRLSCAASGSIFVTNGMGWYRQAPGKERELVAVISWGGGNTYYADSVKGRFTISRDNAKNTVYLLMNNLKPEDTAVYYCAVELYWDYYFTYGYWGKGTQVTVSS | low polyreactivity
19 | QVQLVESGGGLVQAGGSLRLSCAASGSIFVTYAMGGYRQAPGKERELVAAISTSGGSTYADSVKGRFTISRDNAKNTVYLQMNSLKPEDTAVYYCNADDPGYAVPWYWFKFDYWGQGTQVTVSS | low polyreactivity
20 | QVQLVESGGGLVQAGGSLRLSCAASGSIFVTYAMGLYRQAPGKERELVAAITSSDRTKYADSVKGRFTISRDNAKNTVYVQMHSLKPEDTAVYYGAKVVRTRYYGGYDYWGQVTQVTVSS | high polyreactivity
21 | QVQLVESGGGLVQAGGSLRLSCAASGSIFVTYDMGWYRQAPGKERELVAGISGSGSTYYADSVKGRFTISRDNAKNTVYLQMNSLKPEDTAGYYCAAVWSRFLISYSTGWWFEYWGQGTQVTVSS | low polyreactivity

Row | Sequence | polyreactivity (PSR sort gate)
22 | QVQLVESGGGLVQAGGSLRLSCAASGSIFVVYAMGWYRQAPGKARALVAAITSDDDTNYADSVKGRFTLSRDNAKNTVYLQMNSLKPEDTAVYYCAKEVWLAINTRTGYEVYYWGQGTQVTVTS | low polyreactivity
23 | QVQLVESGGGLVQAGGSLRLSCAASGSIFVWNAMGWYRPAPGKERELVAAISYTDGSTYYADSVKGRFTISRDNAKNTVYLQMNSLKPVDTAVYYCAAAITPSYTGSEYDYWGQGTQVTVSS | low polyreactivity
24 | QVQLVESGGGLVQAGGSLRLSCAASGSIFVWNAMGWYRQAPGKERELVAAITNIGGRTYYADSVKGRFTISRDNAKNTFYLQMNSLKPEDTAVYYCNVVVKGAWDYYPYDYWGQGTQVTVSS | high polyreactivity
25 | QVQLVESGGGLVQAGGSLRLSCAASGSIFVWYAMGWYRQAPGKERELVARITSGGRTNYADSVKGRFTISRDNAKNTVYLQMNSLKPEDTAVYYCAAGRVSWSAYYYWGQGSQVTVSS | high polyreactivity
26 | QVQLVESGGGLVQAGGSLRLSCAASGSIFVWYVMGWSRPAAGKERELVAAITWSAARTYYADSVKGRFTISRDNAKNTVYLQMNSLKPEDTAVYYCAADHVSYQPSSRIFDYWGQGTQVTVSS | low polyreactivity
27 | QVQLVESGGGLVQAGGSLRLSCAASGSIFVWYVMGWYRQAPGKERELVAAITWSAARTYYADSVKGRFTISRDNAKNTVYLQMNSLKPADTAVYYCAADHVSYQPSSRIFDYWGHGTQVTVSS | low polyreactivity
28 | QVQLVESGGGLVQAGGSLRLSCAASGSIFVYNAMAWYRPAPGKERELVAAISRGGRTYADSVKGRFTISRDNAKNTVYLQMNSLKPEDTAVYYCAAQGYYRSWYSRQGHYDYWGQGTQVTVSS | high polyreactivity
29 | QVQLVESGGGLVQAGGSLRLSCAASGSIFVYNAMGWYRHAPGTERELVAAISRRGGSTYYADSVKGRFTISRDNAKNTVYLQMNSLKPEDTAVYYCAAFASATRYDYWGQGTQVTVSS | high polyreactivity
30 | QVQLVESGGGLVQAGGSLRLSCAASGSIFVYNAMGWYRQAPGKERELVAAISWSGGRTYYADSVKGRFTISRDNAKNTVYIQMNSLKPEDTAVYYCAARGPTRVPYNYWGQGTQVTVSS | high polyreactivity
31 | QVQLVESGGGLVQAGGSLRLSCAASGSIFVYNAMGWYRQAPGKERELVAGITFIGGSTYYADPVKGRFTISRDNAKNTVYLQMNSLKPEDTAVYYCNADVAPGIFYGYDSWGQGTQVTVSS | low polyreactivity
32 | QVQLVESGGGLVQAGGSLRLSCAASGSIFVYNAMGWYRQAPGKERELVASITWSGGRTYYADSVKGRFTISRDNAKNTVYLQMNSLKPEDTAVYYCAADSPRGYDYWGQGTQVTVSS | high polyreactivity
33 | QVQLVESGGGLVQAGGSLRLSCAASGSIFVYNAMGWYRQAPRKETEMVAAITSTGRTYYADSVKGRFTISRDNAKNTVYLKMNSLKPEDTGVYYCAATYVWSTLQYKTWQKLTHYGYWGQGTQVTVSS | high polyreactivity
34 | QVQLVESGGGLVQAGGSLRLSCAASGSIFVYYAMGWYRQAPGKERELVAAISSGDGTNYADSVKGRFTISRDNAKNTVYLQMNSLKPEDTAVYYCNADLDSGYGSYDYWGQGTEVTVSS | low polyreactivity
35 | QVQLVESGGGLVQAGGSLRLSCAASGSIFVYYAMGWYRQAPGKERELVATIRGSGGSTYYADSVKGRFTISRDNAKNTVYLQMNSLKPEDTAVYYCAATIKYGGRWYGSWGQGTQVTVSS | high polyreactivity
36 | QVQLVESGGGLVQAGGSLRLSCAASGSIFVYYAMGWYRQSPGKERELVAAINWSGGSTYYADSVKGRFTISRDNAKKTVYLQMNSLKPEDSAVYYCNAYLSPYDYDYWGQGTQVTLSS | low polyreactivity
37 | QVQLVESGGGLVQAGGSLRLSCAASGSIFVYYGMGWYRQAPGKERELVAAISSGGSTHYADSVKGRFTISRDNAKNTVYFQMNSLKPEDTAVYYCAADRFFWLRSYPRYYYWGQGTQVTVSS | low polyreactivity
38 | QVQLVESGGGLVQAGGSLRLSCAASGSIFVYYTMGWYRQAPGKERELVAAISISGTSTYYADSVKGRFTNSRDNAKNTVYLQMNSLKPEDTAVYYCAADTYYGEDYWGQGTQVTVSS | low polyreactivity
39 | QVQLVESGGGLVQAGGSLRLSCAASGSIFVYYVMGWYRQAPGKDRELVAAINSDGDGTYYADSVKGRFTISRDNAKNTVYLQMNSLKPEDTAVYYCNALNPKSYDYWGQGTQVTVSS | low polyreactivity
40 | QVQLVESGGGLVQAGGSLRLSCAASGSIFWANAMGWYRQAPGKERELVAAISSSGGRTYYADSVKGRFTISRDNAKNTVYLQMNSLKPEDTAVYYCNKLRLAYYEQGDYWGQGTQVTVSS | high polyreactivity
41 | QVQLVESGGGLVQAGGSLRLSCAASGSIFWFNAMGWYRQAPGKEREFVASISRSGGTTYYADSVKGRFTISRDNAKNTVYLQMNSLKPEDTAVYYCNARAYGNGLGTGYFGKHRYDYWGQGTQVTVSS | low polyreactivity
